Blank lines part the entries; values can stand above or below the sequence they belong to.
Assays:
HLA-B*58:01 [1] = test: IEDB peptide-MHC binding, purified MHC/competitive/radioactivity; filed as Kd, often an IC50 or EC50 that approximates it; ≥ and ≤ were set here for values at or beyond the usual limits of such assays
HLA-B*57:01 [2] = test: as above
HLA-B*58:01 [3] = test: IEDB peptide-MHC binding, purified MHC/direct/fluorescence; filed as Kd, often an IC50 or EC50 that approximates it; ≥ and ≤ were set here for values at or beyond the usual limits of such assays
HLA-B*07:02 = test: as above
HLA-A*11:01 = test: as above
HLA-B*44:02 = test: as above
HLA-B*35:01 = test: as above
HLA-A*31:01 = test: as above
HLA-A*26:01 = test: as above
HLA-A*03:01 = test: as above
HLA-A*02:01 = test: as above
HLA-B*27:05 = test: as above
HLA-B*15:01 = test: as above
HLA-A*30:01 = test: as above; conditions: source organism: Giardia lamblia ATCC 50803
HLA-B*40:01 = test: as above
HLA-A*69:01 = test: as above
HLA-A*01:01 = test: as above
HLA-B*08:01 = test: as above
HLA-A*24:03 = test: as above
HLA-A*02:50 = test: IEDB peptide-MHC binding, purified MHC/competitive/fluorescence; filed as Kd, often an IC50 or EC50 that approximates it; ≥ and ≤ were set here for values at or beyond the usual limits of such assays
HLA-B*51:01 = test: IEDB peptide-MHC binding, purified MHC/direct/fluorescence; filed as Kd, often an IC50 or EC50 that approximates it; ≥ and ≤ were set here for values at or beyond the usual limits of such assays; conditions: source organism: Tetraodon nigroviridis
HLA-B*15:17 = test: as above; conditions: source organism: dengue virus type 4
HLA-B*57:01 [4] = test: as above; conditions: source organism: dengue virus type 4
HLA-A*32:07 = test: IEDB peptide-MHC binding, purified MHC/competitive/fluorescence; filed as Kd, often an IC50 or EC50 that approximates it; ≥ and ≤ were set here for values at or beyond the usual limits of such assays; conditions: source organism: dengue virus type 4
HLA-A*68:23 = test: as above; conditions: source organism: dengue virus type 4
HLA-B*83:01 = test: as above; conditions: source organism: dengue virus type 4
HLA-A*32:15 = test: as above; conditions: source organism: dengue virus type 4
HLA-B*45:06 = test: as above; conditions: source organism: dengue virus type 4
HLA-C*14:02 = test: as above; conditions: source organism: dengue virus type 4
HLA-B*15:42 = test: as above; conditions: source organism: dengue virus type 4
HLA-A*32:01 = test: IEDB peptide-MHC binding, purified MHC/competitive/radioactivity; filed as Kd, often an IC50 or EC50 that approximates it; ≥ and ≤ were set here for values at or beyond the usual limits of such assays; conditions: source organism: Dengue virus 4 Philippines/H241/1956
HLA-B*18:01 = test: IEDB peptide-MHC binding, purified MHC/direct/fluorescence; filed as Kd, often an IC50 or EC50 that approximates it; ≥ and ≤ were set here for values at or beyond the usual limits of such assays; conditions: source organism: Influenza A virus (A/duck/Mongolia/47/2001(H7N1))
HLA-B*46:01 = test: as above; conditions: source organism: Influenza A virus (A/duck/Mongolia/47/2001(H7N1))
HLA-A*24:02 = test: as above; conditions: source organism: Influenza A virus (A/duck/Mongolia/47/2001(H7N1))
HLA-B*39:01 = test: as above; conditions: source organism: Influenza A virus (A/duck/Mongolia/47/2001(H7N1))
[5] = source organism: Dengue virus 2 Peru/IQT2913/1996
[6] = source organism: Giardia lamblia ATCC 50803
[7] = source organism: Dengue virus 1 Brazil/97-11/1997
[8] = source organism: Camelpox virus M-96
[9] = source organism: Vibrio parahaemolyticus
[10] = source organism: Yersinia pestis
[11] = source organism: Rickettsia typhi
[12] = source organism: Brucella melitensis
[13] = source organism: Influenza A virus (A/duck/Mongolia/47/2001(H7N1))
[14] = source organism: Salmonella enterica

Sequence: LTSKELMMTT
Kd (HLA-B*58:01 [1]; [5]): 0.422 µM | Kd (HLA-B*57:01 [2]; [5]): 0.246 µM

Sequence: SVKERGPAY
Kd (HLA-B*58:01 [3]; [6]): ≥ 20 µM | Kd (HLA-B*07:02; [6]): ≥ 20 µM | Kd (HLA-A*11:01; [6]): 0.105 µM | Kd (HLA-B*44:02; [6]): ≥ 20 µM | Kd (HLA-B*35:01; [6]): 0.0394 µM | Kd (HLA-A*31:01; [6]): ≥ 20 µM | Kd (HLA-A*26:01; [6]): 0.0246 µM | Kd (HLA-A*03:01; [6]): 0.61 µM | Kd (HLA-A*02:01; [6]): ≥ 20 µM | Kd (HLA-B*27:05; [6]): ≥ 20 µM | Kd (HLA-B*15:01; [6]): 0.179 µM | Kd (HLA-A*30:01): 0.0354 µM | Kd (HLA-B*40:01; [6]): ≥ 20 µM | Kd (HLA-A*69:01; [6]): ≥ 20 µM | Kd (HLA-A*01:01; [6]): ≥ 20 µM | Kd (HLA-B*08:01; [6]): ≥ 20 µM

Sequence: ATLFVWYFW
Kd (HLA-B*58:01 [1]; [7]): 0.2 µM | Kd (HLA-B*57:01 [2]; [7]): 0.115 µM

Sequence: VMCIQMKYV
Kd (HLA-B*58:01 [3]; [8]): ≥ 20 µM | Kd (HLA-B*07:02; [8]): ≥ 20 µM | Kd (HLA-A*11:01; [8]): ≥ 20 µM | Kd (HLA-B*44:02; [8]): ≥ 20 µM | Kd (HLA-A*31:01; [8]): ≥ 20 µM | Kd (HLA-A*26:01; [8]): ≥ 20 µM | Kd (HLA-A*03:01; [8]): ≥ 20 µM | Kd (HLA-A*02:01; [8]): ≥ 20 µM | Kd (HLA-A*24:03; [8]): ≥ 20 µM | Kd (HLA-B*27:05; [8]): ≥ 20 µM | Kd (HLA-B*15:01; [8]): ≥ 20 µM | Kd (HLA-B*40:01; [8]): ≥ 20 µM | Kd (HLA-A*01:01; [8]): ≥ 20 µM | Kd (HLA-B*08:01; [8]): ≥ 20 µM | Kd (HLA-A*02:50; source organism: Variola virus): 0.0181 µM

Sequence: MSSAMSMMH
Kd (HLA-B*58:01 [3]; [9]): 0.624 µM | Kd (HLA-B*07:02; [9]): ≥ 20 µM | Kd (HLA-A*11:01; [9]): 0.154 µM | Kd (HLA-B*44:02; [9]): ≥ 20 µM | Kd (HLA-B*35:01; [9]): 0.0728 µM | Kd (HLA-A*26:01; [9]): ≥ 20 µM | Kd (HLA-A*03:01; [9]): 0.0661 µM | Kd (HLA-A*02:01; [9]): ≥ 20 µM | Kd (HLA-A*24:03; [9]): 5.11 µM | Kd (HLA-B*27:05; [9]): ≥ 20 µM | Kd (HLA-B*15:01; [9]): 2.58 µM | Kd (HLA-B*40:01; [9]): ≥ 20 µM | Kd (HLA-A*69:01; [9]): ≥ 20 µM | Kd (HLA-A*01:01; [9]): 6.94 µM | Kd (HLA-B*08:01; [9]): ≥ 20 µM

Sequence: LAIPVTMTL
Kd (HLA-B*58:01 [1]; source organism: Dengue virus 4 Philippines/H241/1956): 0.00134 µM

Kd (HLA-B*51:01): 11.3 µM
Sequence: LPAQGLIEF

Kd (HLA-A*02:01; source organism: Escherichia coli O157:H7): 1.01 µM | Kd (HLA-A*02:50; source organism: Escherichia coli O157:H7 str. Sakai): 0.0004 µM
Sequence: WMDMWESPM

Sequence: GMFIIFIPI
Kd (HLA-A*02:01; [10]): 8.84 µM | Kd (HLA-A*69:01; [10]): 5.42 µM | Kd (HLA-A*02:50; source organism: Yersinia pestis Nepal516): 0.395 µM

Sequence: APILVVSGI
Kd (HLA-B*58:01 [3]; [11]): ≥ 20 µM | Kd (HLA-B*07:02; [11]): 0.157 µM | Kd (HLA-A*11:01; [11]): ≥ 20 µM | Kd (HLA-B*44:02; [11]): ≥ 20 µM | Kd (HLA-B*35:01; [11]): 0.289 µM | Kd (HLA-A*31:01; [11]): ≥ 20 µM | Kd (HLA-A*26:01; [11]): ≥ 20 µM | Kd (HLA-A*03:01; [11]): ≥ 20 µM | Kd (HLA-A*02:01; [11]): ≥ 20 µM | Kd (HLA-A*24:03; [11]): 14.8 µM | Kd (HLA-B*27:05; [11]): ≥ 20 µM | Kd (HLA-B*15:01; [11]): ≥ 20 µM | Kd (HLA-B*40:01; [11]): ≥ 20 µM | Kd (HLA-A*69:01; [11]): ≥ 20 µM | Kd (HLA-A*01:01; [11]): ≥ 20 µM | Kd (HLA-B*08:01; [11]): ≥ 20 µM

Sequence: STMPLVMAW
Kd (HLA-B*15:17): ≤ 0.001 µM | Kd (HLA-B*57:01 [4]): 0.0052 µM | Kd (HLA-A*32:07): ≤ 0.001 µM | Kd (HLA-A*68:23): 0.0006 µM | Kd (HLA-B*83:01): 1.14 µM | Kd (HLA-A*32:15): 0.0227 µM | Kd (HLA-B*45:06): ≥ 5 µM | Kd (HLA-C*14:02): 0.0106 µM | Kd (HLA-B*15:42): ≥ 5 µM | Kd (HLA-A*32:01): 0.00169 µM

Sequence: ALFEDYPGC
Kd (HLA-B*58:01 [3]; [12]): ≥ 20 µM | Kd (HLA-B*07:02; [12]): ≥ 20 µM | Kd (HLA-A*11:01; [12]): ≥ 20 µM | Kd (HLA-B*44:02; [12]): ≥ 20 µM | Kd (HLA-A*31:01; [12]): ≥ 20 µM | Kd (HLA-A*26:01; [12]): ≥ 20 µM | Kd (HLA-A*03:01; [12]): ≥ 20 µM | Kd (HLA-A*02:01; [12]): 0.354 µM | Kd (HLA-A*24:03; [12]): ≥ 20 µM | Kd (HLA-B*27:05; [12]): ≥ 20 µM | Kd (HLA-B*15:01; [12]): ≥ 20 µM | Kd (HLA-B*40:01; [12]): ≥ 20 µM | Kd (HLA-A*69:01; [12]): ≥ 20 µM | Kd (HLA-A*01:01; [12]): ≥ 20 µM | Kd (HLA-B*08:01; [12]): ≥ 20 µM | Kd (HLA-A*02:50; [12]): 0.0062 µM

Sequence: LGSQEGAMHT
Kd (HLA-B*58:01 [1]; source organism: Dengue virus 2 Jamaica/1409/1983): 0.548 µM

Sequence: THFQRKRRV
Kd (HLA-B*58:01 [3]; [13]): ≥ 20 µM | Kd (HLA-B*07:02; [13]): ≥ 20 µM | Kd (HLA-A*11:01; [13]): ≥ 20 µM | Kd (HLA-B*44:02; [13]): ≥ 20 µM | Kd (HLA-A*31:01; [13]): ≥ 20 µM | Kd (HLA-B*18:01): ≥ 20 µM | Kd (HLA-A*26:01; source organism: Influenza A virus(A/swine/Henan/3/2004(H9N2))): ≥ 20 µM | Kd (HLA-A*03:01; [13]): ≥ 20 µM | Kd (HLA-B*46:01): ≥ 20 µM | Kd (HLA-A*02:01; [13]): ≥ 20 µM | Kd (HLA-B*27:05; [13]): ≥ 20 µM | Kd (HLA-B*15:01; [13]): ≥ 20 µM | Kd (HLA-A*24:02): ≥ 20 µM | Kd (HLA-B*40:01; [13]): ≥ 20 µM | Kd (HLA-B*39:01): ≥ 20 µM | Kd (HLA-A*01:01; [13]): ≥ 20 µM | Kd (HLA-B*08:01; [13]): ≥ 20 µM

Sequence: ATGDYVAFV
Kd (HLA-A*02:01; [14]): 0.067 µM | Kd (HLA-A*69:01; [14]): 0.0158 µM | Kd (HLA-A*02:50; source organism: Salmonella enterica subsp. enterica serovar Typhi): 0.0009 µM

Reference: the Immune Epitope Database (IEDB)
